Experimental data published in IntAct's records for PubMed 29892012.

B1: U3 small nucleolar RNA-associated protein 25 homolog (Homo sapiens), Q68CQ4 (parent)
chain: MGKRGSRSQSQLLNTLTKKQKKHLRDFGEEHPFYDRVSRKEAKPQICQLSESSDSSDSESDSESEPQQVSGYHRLLATLKNVSEEEEEDEEEEEEEDSIVDDAEMNDEDGGSDVSVEEEMAAESTESPENVALSADPEGKEDGEEPPGTSQTSPEEFTDAKHESLFSLETNFLEEESGDNSSLKASQDPFLQHVNKELKEKAIQAVATNPKTTHELKWPILGQLFFSSKFQKLETFKPPKDIDLKSLHLQKPLESTWTKTNSQFLSGPQKSSSPFTPLQKELFLIMNSYRDLFYPERTALKNGEEIRHVYCLHVINHILKANAQVLGNNSRRRSQKFGVGDDDDFRDQGLTRPKVLIVVPFREAALRVVQLFISLLEGDSKKKIIVSNKKRFQGEYGSDPEERPPNLKRPEDYEAVFVGNIDDHFRIGVAILQRSIRLYAPFYSSDILIASPLGLRTIIGGEGEKKRDFDFLSSIELLIIDQADIYLMQNWEHVLHLMNHMNLLPLDSHGVDFSRVRMWSLNNWSKYYRQTLLFGALQDAQINSVFNKYCVNMQGQVAVRNVPMTGSISHVLVQLPHVFQRMEAENLASVIDARFNFFVNKILPQYRDAVMSHTLIYIPSYFDFVRLRNYFKKEELNFTHICEYTQKSGVSRARHFFLQGEKQFLLFTERFHFYKRYTIKGIRNLIFYELPTYPHFYSEICNMLRATNRGEEATWTCTVLYSKYDAQRLAAVVGVERAAQMLQSNKNVHLFITGEK
partner: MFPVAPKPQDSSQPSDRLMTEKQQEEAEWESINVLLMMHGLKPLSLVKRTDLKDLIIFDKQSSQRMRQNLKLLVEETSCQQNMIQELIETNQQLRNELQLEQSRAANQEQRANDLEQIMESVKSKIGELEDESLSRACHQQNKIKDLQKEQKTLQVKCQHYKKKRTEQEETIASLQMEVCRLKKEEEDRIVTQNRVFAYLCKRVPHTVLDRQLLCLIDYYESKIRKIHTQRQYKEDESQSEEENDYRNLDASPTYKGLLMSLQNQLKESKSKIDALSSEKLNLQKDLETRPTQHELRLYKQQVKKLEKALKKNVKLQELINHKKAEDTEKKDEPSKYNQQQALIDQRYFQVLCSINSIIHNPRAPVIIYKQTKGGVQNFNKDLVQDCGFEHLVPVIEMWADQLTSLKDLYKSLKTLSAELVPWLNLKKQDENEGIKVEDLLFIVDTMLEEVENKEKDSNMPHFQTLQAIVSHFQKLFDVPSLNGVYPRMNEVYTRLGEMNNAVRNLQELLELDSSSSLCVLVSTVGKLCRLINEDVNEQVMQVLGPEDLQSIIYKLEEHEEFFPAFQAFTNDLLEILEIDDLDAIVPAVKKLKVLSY
B2: E3 ubiquitin-protein ligase LNX (Homo sapiens), Q8TBB1 (parent)
chain: MNQPESANDPEPLCAVCGQAHSLEENHFYSYPEEVDDDLICHICLQALLDPLDTPCGHTYCTLCLTNFLVEKDFCPMDRKPLVLQHCKKSSILVNKLLNKLLVTCPFREHCTQVLQRCDLEHHFQTSCKGASHYGLTKDRKRRSQDGCPDGCASLTATAPSPEVSAAATISLMTDEPGLDNPAYVSSAEDGQPAISPVDSGRSNRTRARPFERSTIRSRSFKKINRALSVLRRTKSGSAVANHADQGRENSENTTAPEVFPRLYHLIPDGEITSIKINRVDPSESLSIRLVGGSETPLVHIIIQHIYRDGVIARDGRLLPGDIILKVNGMDISNVPHNYAVRLLRQPCQVLWLTVMREQKFRSRNNGQAPDAYRPRDDSFHVILNKSSPEEQLGIKLVRKVDEPGVFIFNVLDGGVAYRHGQLEENDRVLAINGHDLRYGSPESAAHLIQASERRVHLVVSRQVRQRSPDIFQEAGWNSNGSWSPGPGERSNTPKPLHPTITCHEKVVNIQKDPGESLGMTVAGGASHREWDLPIYVISVEPGGVISRDGRIKTGDILLNVDGVELTEVSRSEAVALLKRTSSSIVLKALEVKEYEPQEDCSSPAALDSNHNMAPPSDWSPSWVMWLELPRCLYNCKDIVLRRNTAGSLGFCIVGGYEEYNGNKPFFIKSIVEGTPAYNDGRIRCGDILLAVNGRSTSGMIHACLARLLKELKGRITLTIVSWPGTFL
partner: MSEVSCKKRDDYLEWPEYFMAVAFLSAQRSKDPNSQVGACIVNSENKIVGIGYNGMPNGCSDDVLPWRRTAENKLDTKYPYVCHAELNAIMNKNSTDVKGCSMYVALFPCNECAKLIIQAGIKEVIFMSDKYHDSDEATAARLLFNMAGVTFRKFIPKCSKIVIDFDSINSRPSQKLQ
B3: Galectin-8 (Homo sapiens), O00214 (parent)
chain: MMLSLNNLQNIIYNPVIPFVGTIPDQLDPGTLIVIRGHVPSDADRFQVDLQNGSSMKPRADVAFHFNPRFKRAGCIVCNTLINEKWGREEITYDTPFKREKSFEIVIMVLKDKFQVAVNGKHTLLYGHRIGPEKIDTLGIYGKVNIHSIGFSFSSDLQSTQASSLELTEISRENVPKSGTPQLRLPFAARLNTPMGPGRTVVVKGEVNANAKSFNVDLLAGKSKDIALHLNPRLNIKAFVRNSFLQESWGEEERNITSFPFSPGMYFEMIIYCDVREFKVAVNGVHSLEYKHRFKELSSIDTLEINGDIHLLEVRSW
B4: E3 ubiquitin-protein ligase LNX (Homo sapiens), Q8TBB1 (parent)
chain: B2 chain
partner: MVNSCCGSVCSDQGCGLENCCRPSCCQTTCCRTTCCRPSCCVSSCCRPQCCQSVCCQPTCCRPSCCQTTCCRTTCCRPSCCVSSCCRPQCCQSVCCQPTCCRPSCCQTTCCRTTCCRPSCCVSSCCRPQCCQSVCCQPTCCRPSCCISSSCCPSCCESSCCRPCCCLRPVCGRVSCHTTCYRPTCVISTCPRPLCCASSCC
B5: E3 ubiquitin-protein ligase LNX (Homo sapiens), Q8TBB1 (parent)
chain: B2 chain
partner: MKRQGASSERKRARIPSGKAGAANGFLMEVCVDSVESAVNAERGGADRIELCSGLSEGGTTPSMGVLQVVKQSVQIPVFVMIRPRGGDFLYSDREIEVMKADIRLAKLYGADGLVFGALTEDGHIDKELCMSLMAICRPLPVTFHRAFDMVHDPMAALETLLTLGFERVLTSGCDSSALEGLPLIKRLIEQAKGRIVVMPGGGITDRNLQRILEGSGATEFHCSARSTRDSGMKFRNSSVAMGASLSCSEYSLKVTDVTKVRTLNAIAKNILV
B6: Abl interactor 2 (Homo sapiens), Q9NYB9 (parent)
chain: MAELQMLLEEEIPGGRRALFDSYTNLERVADYCENNYIQSADKQRALEETKAYTTQSLASVAYLINTLANNVLQMLDIQASQLRRMESSINHISQTVDIHKEKVARREIGILTTNKNTSRTHKIIAPANLERPVRYIRKPIDYTILDDIGHGVKWLLRFKVSTQNMKMGGLPRTTPPTQKPPSPPMSGKGTLGRHSPYRTLEPVRPPVVPNDYVPSPTRNMAPSQQSPVRTASVNQRNRTYSSSGSSGGSHPSSRSSSRENSGSGSVGVPIAVPTPSPPSVFPAPAGSAGTPPLPATSASAPAPLVPATVPSSTAPNAAAGGAPNLADGFTSPTPPVVSSTPPTGHPVQFYSMNRPASRHTPPTIGGSLPYRRPPSITSQTSLQNQMNGGPFYSQNPVSDTPPPPPPVEEPVFDESPPPPPPPEDYEEEEAAVVEYSDPYAEEDPPWAPRSYLEKVVAIYDYTKDKEDELSFQEGAIIYVIKKNDDGWYEGVMNGVTGLFPGNYVESIMHYSE
partner: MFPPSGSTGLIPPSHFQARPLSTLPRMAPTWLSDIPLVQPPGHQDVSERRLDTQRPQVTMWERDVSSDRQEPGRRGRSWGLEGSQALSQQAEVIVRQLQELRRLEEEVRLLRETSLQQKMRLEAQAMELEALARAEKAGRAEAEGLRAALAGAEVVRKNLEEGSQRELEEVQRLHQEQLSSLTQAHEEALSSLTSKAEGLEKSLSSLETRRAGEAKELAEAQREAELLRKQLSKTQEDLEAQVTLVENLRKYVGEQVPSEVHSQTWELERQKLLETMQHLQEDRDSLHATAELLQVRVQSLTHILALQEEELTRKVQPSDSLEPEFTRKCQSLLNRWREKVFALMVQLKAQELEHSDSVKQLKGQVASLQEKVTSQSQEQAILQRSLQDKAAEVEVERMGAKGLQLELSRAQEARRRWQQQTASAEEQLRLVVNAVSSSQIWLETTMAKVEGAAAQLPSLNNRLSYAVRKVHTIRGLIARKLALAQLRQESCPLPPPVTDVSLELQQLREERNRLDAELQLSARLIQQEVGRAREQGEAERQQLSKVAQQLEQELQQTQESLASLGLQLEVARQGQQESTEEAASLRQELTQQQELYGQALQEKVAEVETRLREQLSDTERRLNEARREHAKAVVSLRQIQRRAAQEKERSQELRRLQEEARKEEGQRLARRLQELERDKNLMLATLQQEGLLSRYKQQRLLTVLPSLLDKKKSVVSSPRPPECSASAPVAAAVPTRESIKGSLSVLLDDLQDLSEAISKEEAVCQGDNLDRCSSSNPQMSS

Variants of: B1
Settings: with cep70_human CEP70, Q8NHQ1

Variant | effect of a mutation on the interaction
D399E | with no effect

Variants of: B2
Settings: with dctd_human DCTD

Variant | effect of a mutation on the interaction
E295K | disrupting interaction strength

Variants of: B3
Settings: with taxb1_human TAX1BP1, Q86VP1
taxb1_human TAX1BP1, Q86VP1, sequence (Q86VP1 whole entry): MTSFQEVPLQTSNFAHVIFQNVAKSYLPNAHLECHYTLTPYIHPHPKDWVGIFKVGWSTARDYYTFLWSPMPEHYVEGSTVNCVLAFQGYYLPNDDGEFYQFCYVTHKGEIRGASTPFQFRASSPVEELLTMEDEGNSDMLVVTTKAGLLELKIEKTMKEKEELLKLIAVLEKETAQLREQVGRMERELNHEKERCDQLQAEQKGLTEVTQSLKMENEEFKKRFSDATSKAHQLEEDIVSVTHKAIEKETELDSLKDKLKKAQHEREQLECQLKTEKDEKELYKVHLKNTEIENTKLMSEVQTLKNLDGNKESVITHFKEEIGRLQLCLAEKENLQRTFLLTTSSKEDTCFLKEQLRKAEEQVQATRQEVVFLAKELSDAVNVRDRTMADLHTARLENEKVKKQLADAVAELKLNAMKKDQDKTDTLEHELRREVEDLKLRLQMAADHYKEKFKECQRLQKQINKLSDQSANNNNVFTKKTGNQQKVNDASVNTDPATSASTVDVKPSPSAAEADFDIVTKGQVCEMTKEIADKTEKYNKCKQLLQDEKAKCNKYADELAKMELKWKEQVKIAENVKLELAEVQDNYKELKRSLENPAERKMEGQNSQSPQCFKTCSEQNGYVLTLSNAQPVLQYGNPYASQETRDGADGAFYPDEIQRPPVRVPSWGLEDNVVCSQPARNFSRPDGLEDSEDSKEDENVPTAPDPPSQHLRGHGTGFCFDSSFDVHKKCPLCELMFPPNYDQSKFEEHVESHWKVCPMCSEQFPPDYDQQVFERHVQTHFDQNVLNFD

Variant | effect of a mutation on the interaction
P194T | with no effect

Variants of: B4
Settings: with kr412_human KRTAP4-12, Q9BQ66

Variant | effect of a mutation on the interaction
E295K | disrupting interaction strength

Variants of: B5
Settings: with cutc_human CUTC

Variant | effect of a mutation on the interaction
E295K | disrupting interaction strength

Variants of: B6
Settings: with cchcr_human CCHCR1, Q8TD31

Variant | effect of a mutation on the interaction
E202K | with no effect
